The values below come from patent US20250235548A1 (Zymeworks, published 2025).

Test [1] addresses T1, human sodium-dependent phosphate transporter 2B (NaPi2b) (human, UniProt O95436 1-690).
T1 construct: Multi-pass membrane transporter; It stood on HEK293-6e cells transfected with pTT5-huNaPi2b, or endogenously on the tumour cell lines IGROV-1, OVCAR-3, HCC-78, TOV-21G and NCI-H441; also called Hu NaPi2b; hNaPi2b
T1 sequence: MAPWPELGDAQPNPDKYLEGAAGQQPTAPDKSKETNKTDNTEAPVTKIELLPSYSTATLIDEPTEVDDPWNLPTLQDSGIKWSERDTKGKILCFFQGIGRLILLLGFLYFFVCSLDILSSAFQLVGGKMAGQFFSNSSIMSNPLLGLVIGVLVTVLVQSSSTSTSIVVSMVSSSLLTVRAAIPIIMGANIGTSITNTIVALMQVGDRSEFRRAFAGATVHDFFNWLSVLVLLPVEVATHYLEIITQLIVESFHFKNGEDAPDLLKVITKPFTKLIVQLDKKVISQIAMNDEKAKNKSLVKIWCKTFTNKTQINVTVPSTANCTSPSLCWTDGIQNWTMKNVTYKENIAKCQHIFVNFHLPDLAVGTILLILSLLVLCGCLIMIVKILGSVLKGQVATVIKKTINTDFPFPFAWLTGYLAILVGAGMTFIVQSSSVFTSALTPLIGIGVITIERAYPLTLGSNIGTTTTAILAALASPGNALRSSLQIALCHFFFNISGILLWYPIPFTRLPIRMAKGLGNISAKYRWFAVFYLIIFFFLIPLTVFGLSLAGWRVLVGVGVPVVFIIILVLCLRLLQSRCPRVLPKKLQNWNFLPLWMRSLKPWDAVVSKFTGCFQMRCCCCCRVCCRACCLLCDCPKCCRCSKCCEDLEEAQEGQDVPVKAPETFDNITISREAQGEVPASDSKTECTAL
Briefly: flow cytometry on HEK293-6e cells transfected with human NaPi2b. For orientation: Flow cytometry measures light scatter and fluorescence of single cells or particles in a stream.
Protocol: Following transfection, cells were seeded at 50,000 cells/well in conical-bottom 96-well plates and treated with test antibody or antibody-drug conjugate for 24 hours at 4° C. to prevent internalization. […] Following incubation and washing, fluorescence was detected by flow cytometry on a BD LSRFortessa™ Cell Analyzer (BD Biosciences, Franklin Lake, NJ) with 1,000 minimum events collected per well.

For test [2], the target named is T2, human sodium-dependent phosphate transporter 2B (NaPi2b) (human, UniProt O95436 1-690).
T2 construct: also called hNaPi2b; Hu NaPi2b
T2 sequence: T1 sequence
Briefly: flow cytometry, IGROV-1, HCC-78 and H441 cells.

The target in test [3] is T2, human sodium-dependent phosphate …. The test can be described thus: flow cytometry on IGROV-1 cells (endogenous NaPi2b), 24 h at 4 C, anti-human IgG Fc AF647, APC-A GeoMean.
Protocol: Briefly, cells were seeded at 50,000 cells/well in conical-bottom 96-well plates and treated with test antibody for 24 hours at 4° C. to prevent internalization. […] Following incubation and washing, fluorescence was detected by flow cytometry on a BD LSRFortessa™ Cell Analyzer (BD Biosciences, Franklin Lake, NJ) with 1,000 minimum events collected per well.

B1: humanized anti-NaPi2b antibody variant v38591 (antibody, human IgG1, kappa)
heavy: not shown
light: DVQMTQSPSSLSASVGDRVTITCRASQDVYSYLNWYQQKPGKAVKLLIYYTSRLQSGVPSRFSGSGSGTDYTLTISSLQPEDFATYYCQQYNIFPWTFGQGTKLEIKRTVAAPSVFIFPPSDEQLKSGTASVVCLLNNFYPREAKVQWKVDNALQSGNSQESVTEQDSKDSTYSLSSTLTLSKADYEKHKVYACEVTHQGLSSPVTKSFNRGEC
notes: Human IgG1/kappa full-size antibody; It is identical to v29456 except that the heavy chains include a C-terminal lysine; also called v38591 (H1L2)
With B1, the Bmax in test [1] worked out at 65.

B2: v21995 (palivizumab), anti-RSV negative control antibody (antibody, human IgG1, kappa, V domains shown)
VH: QVTLRESGPALVKPTQTLTLTCTFSGFSLSTSGMSVGWIRQPPGKALEWLADIWWDDKKDYNPSLKSRLTISKDTSKNQVVLKVTNMDPADTATYYCARSMITNWYFDVWGAGTTVTVSS
VL: DIQMTQSPSTLSASVGDRVTITCKSQLSVGYMHWYQQKPGKAPKLLIYDTSKLASGVPSRFSGSGSGTEFTLTISSLQPDDFATYYCFQGSGYPFTFGGGTKLEIKR
Take B2: the binding result in test [2] was “no binding”.

B3: v18992 (MX35)-DL2 antibody-drug conjugate (antibody, human IgG1, kappa)
heavy 1: GQVQLVQSGAEVVKPGASVKMSCKASGYTFTGYNIHWVKQAPGQGLEWIGAIYPGNGDTSYKQKFRGRATLTADTSTSTVYMELSSLRSEDSAVYYCARGETARATFAYWGQGTLVTVSSASTKGPSVFPLAPSSKSTSGGTAALGCLVKDYFPEPVTVSWNSGALTSGVHTFPAVLQSSGLYSLSSVVTVPSSSLGTQTYICNVNHKPSNTKVDKKVEPKSCDKTHTCPPCPAPELLGGPSVFLFPPKPKDTLMISRTPEVTCVVVDVSHEDPEVKFNWYVDGVEVHNAKTKPREEQYNSTYRVVSVLTVLHQDWLNGKEYKCKVSNKALPAPIEKTISKAKGQPREPQVYVYPPSRDELTKNQVSLTCLVKGFYPSDIAVEWESNGQPENNYKTTPPVLDSDGSFALVSKLTVDKSRWQQGNVFSCSVMHEALHNHYTQKSLSLSPG
heavy 2: not shown
light: GDIQMTQSPSSLSASVGDRVTITCSASQDIGNFLNWYQQKPGKTVKVLIYYTSSLYSGVPSRFSGSGSGTDYTLTISSLQPEDFATYYCQQYSKLPLTFGQGTKLELKRTVAAPSVFIFPPSDEQLKSGTASVVCLLNNFYPREAKVQWKVDNALQSGNSQESVTEQDSKDSTYSLSSTLTLSKADYEKHKVYACEVTHQGLSSPVTKSFNRGEC
modifications: maleimide functionalized auristatin drug linker (DL2); sites and DAR not stated
notes: also called MX35-DL2 ADC
Usually EC50 (read off the curve) stands for the midpoint of the concentration-response curve. The low end stands for an effect from little substance, the high end for a need for much substance. B3: the 50% effective concentration (EC50 (read off the curve)) in test [3] was about 1 nM.
